T1: Rpn5 (recombinant lid) (S. cerevisiae, UniProt Q12250 1-445)
T1 sequence: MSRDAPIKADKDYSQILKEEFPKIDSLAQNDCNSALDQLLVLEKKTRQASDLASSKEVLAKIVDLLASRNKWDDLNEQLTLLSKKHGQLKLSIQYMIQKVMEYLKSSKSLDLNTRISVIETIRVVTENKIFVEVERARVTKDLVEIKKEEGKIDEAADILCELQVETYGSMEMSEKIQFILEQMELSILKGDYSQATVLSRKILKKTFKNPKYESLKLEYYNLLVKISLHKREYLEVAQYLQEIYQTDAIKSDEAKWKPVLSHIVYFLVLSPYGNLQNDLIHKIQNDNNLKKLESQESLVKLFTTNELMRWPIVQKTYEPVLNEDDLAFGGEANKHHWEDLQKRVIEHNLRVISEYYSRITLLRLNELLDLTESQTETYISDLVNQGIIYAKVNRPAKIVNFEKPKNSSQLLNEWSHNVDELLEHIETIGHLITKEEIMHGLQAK

T2: Rpt5 (S. cerevisiae, UniProt P33297 1-434)
T2 sequence: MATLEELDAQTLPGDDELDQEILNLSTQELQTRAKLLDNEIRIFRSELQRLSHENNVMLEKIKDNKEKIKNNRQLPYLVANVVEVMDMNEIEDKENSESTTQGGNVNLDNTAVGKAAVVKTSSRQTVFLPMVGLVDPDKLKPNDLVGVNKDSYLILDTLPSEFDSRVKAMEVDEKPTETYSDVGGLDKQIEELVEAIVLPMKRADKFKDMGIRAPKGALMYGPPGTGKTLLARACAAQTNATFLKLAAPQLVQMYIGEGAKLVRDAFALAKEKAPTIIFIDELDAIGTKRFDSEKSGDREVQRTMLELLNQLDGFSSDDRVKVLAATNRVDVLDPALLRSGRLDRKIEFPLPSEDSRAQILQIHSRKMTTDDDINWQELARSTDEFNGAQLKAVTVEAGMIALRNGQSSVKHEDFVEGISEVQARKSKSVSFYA

T3: Rpn7 (S. cerevisiae, UniProt Q06103 1-429)
T3 sequence: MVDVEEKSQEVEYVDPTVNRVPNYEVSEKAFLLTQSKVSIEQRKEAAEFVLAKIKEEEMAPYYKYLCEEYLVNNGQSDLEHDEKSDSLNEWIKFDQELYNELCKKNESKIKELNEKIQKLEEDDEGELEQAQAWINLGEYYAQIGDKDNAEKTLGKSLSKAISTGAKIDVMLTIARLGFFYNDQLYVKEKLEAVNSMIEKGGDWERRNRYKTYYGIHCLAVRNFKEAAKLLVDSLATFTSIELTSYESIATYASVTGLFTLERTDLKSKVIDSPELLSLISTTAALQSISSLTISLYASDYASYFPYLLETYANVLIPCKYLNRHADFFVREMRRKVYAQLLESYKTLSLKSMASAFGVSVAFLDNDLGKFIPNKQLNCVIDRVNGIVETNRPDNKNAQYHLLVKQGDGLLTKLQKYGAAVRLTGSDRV

T4: Rpn2 (S. cerevisiae, UniProt P32565 1-945)
T4 sequence: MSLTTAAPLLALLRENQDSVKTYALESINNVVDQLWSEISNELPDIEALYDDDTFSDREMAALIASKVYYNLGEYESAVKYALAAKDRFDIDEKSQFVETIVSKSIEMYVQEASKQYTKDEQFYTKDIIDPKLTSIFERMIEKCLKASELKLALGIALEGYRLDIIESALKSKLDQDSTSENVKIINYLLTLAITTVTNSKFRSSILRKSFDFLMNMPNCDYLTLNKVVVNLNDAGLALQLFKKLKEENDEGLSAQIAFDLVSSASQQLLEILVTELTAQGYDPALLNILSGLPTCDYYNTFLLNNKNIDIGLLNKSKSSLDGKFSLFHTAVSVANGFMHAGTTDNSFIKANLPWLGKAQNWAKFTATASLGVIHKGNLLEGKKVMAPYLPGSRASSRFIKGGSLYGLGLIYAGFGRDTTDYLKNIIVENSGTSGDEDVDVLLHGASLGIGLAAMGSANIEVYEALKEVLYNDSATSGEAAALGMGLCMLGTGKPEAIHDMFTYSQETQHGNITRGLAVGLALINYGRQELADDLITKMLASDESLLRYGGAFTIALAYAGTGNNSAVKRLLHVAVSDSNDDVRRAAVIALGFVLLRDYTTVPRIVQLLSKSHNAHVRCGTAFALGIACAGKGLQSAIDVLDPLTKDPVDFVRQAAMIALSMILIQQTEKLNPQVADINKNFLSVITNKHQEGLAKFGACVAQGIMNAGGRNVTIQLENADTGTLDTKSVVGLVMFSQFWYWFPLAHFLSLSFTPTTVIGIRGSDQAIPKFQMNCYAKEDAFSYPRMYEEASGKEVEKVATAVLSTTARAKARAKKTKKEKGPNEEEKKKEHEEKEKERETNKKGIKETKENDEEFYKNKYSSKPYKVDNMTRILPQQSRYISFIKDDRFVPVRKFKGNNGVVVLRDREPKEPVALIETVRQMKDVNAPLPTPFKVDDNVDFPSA

T5: Rpt3 (S. cerevisiae, UniProt P33298 1-428)
T5 sequence: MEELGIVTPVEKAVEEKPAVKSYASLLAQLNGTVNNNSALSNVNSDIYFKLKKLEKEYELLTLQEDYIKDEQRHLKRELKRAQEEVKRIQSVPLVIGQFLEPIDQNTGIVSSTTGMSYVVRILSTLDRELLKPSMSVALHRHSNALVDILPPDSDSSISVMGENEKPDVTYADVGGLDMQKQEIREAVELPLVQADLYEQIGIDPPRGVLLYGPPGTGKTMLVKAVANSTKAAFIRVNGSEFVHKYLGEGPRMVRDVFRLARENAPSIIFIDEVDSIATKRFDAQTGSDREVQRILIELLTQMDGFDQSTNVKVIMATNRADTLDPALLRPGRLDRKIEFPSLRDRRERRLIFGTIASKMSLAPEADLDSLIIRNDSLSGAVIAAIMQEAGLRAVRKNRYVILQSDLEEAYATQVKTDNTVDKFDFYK

T6: Rpn9 (recombinant lid) (S. cerevisiae, UniProt Q04062 1-393)
T6 sequence: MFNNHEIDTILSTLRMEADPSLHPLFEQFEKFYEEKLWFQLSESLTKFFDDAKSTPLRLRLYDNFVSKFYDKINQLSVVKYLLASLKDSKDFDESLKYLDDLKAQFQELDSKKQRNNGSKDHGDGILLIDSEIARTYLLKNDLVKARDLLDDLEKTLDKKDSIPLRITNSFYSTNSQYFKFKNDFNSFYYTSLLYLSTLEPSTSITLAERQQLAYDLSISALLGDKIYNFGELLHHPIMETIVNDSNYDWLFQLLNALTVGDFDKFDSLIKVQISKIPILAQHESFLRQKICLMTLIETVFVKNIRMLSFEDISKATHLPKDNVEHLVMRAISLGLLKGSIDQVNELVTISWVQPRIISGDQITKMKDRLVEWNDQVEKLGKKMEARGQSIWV

B1: Rpn11-6xHis (recombinant lid) (enzyme)
chain: MERLQRLMMNSKVGSADTGRDDTKETVYISSIALLKMLKHGRAGVPMEVMGLMLGEFVDDYTVNVVDVFAMPQSGTGVSVEAVDDVFQAKMMDMLKQTGRDQMVVGWYHSHPGFGCWLSSVDVNTQKSFEQLNSRAVAVVVDPIQSVKGKVVIDAFRLIDTGALINNLEPRQTTSNTGLLNKANIQALIHGLNRHYYSLNIDYHKTAKETKMLMNLHKEQWQSGLKMYDYEEKEESNLAATKSMVKIAEQYSKRIEEEKELTEEELKTRYVGRQDPKKHLSETADETLENNIVSVLTAGVNSVAIK
B2: 20S core subunit α6 (natural protein)
chain: MFRNNYDGDTVTFSPTGRLFQVEYALEAIKQGSVTVGLRSNTHAVLVALKRNADELSSYQKKIIKCDEHMGLSLAGLAPDARVLSNYLRQQCNYSSLVFNRKLAVERAGHLLCDKAQKNTQSYGGRPYGVGLLIIGYDKSGAHLLEFQPSGNVTELYGTAIGARSQGAKTYLERTLDTFIKIDGNPDELIKAGVEAISQSLRDESLTVDNLSIAIVGKDTPFTIYDGEAVAKYI
B3: Rpt6 (natural protein)
chain: MTAAVTSSNIVLETHESGIKPYFEQKIQETELKIRSKTENVRRLEAQRNALNDKVRFIKDELRLLQEPGSYVGEVIKIVSDKKVLVKVQPEGKYIVDVAKDINVKDLKASQRVCLRSDSYMLHKVLENKADPLVSLMMVEKVPDSTYDMVGGLTKQIKEIKEVIELPVKHPELFESLGIAQPKGVILYGPPGTGKTLLARAVAHHTDCKFIRVSGAELVQKYIGEGSRMVRELFVMAREHAPSIIFMDEIDSIGSTRVEGSGGGDSEVQRTMLELLNQLDGFETSKNIKIIMATNRLDILDPALLRPGRIDRKIEFPPPSVAARAEILRIHSRKMNLTRGINLRKVAEKMNGCSGADVKGVCTEAGMYALRERRIHVTQEDFELAVGKVMNKNQETAISVAKLFK
B4: Rpn8 (natural protein)
chain: MSLQHEKVTIAPLVLLSALDHYERTQTKENKRCVGVILGDANSSTIRVTNSFALPFEEDEKNSDVWFLDHNYIENMNEMCKKINAKEKLIGWYHSGPKLRASDLKINELFKKYTQNNPLLLIVDVKQQGVGLPTDAYVAIEQVKDDGTSTEKTFLHLPCTIEAEEAEEIGVEHLLRDVRDQAAGGLSIRLTNQLKSLKGLQSKLKDVVEYLDKVINKELPINHTILGKLQDVFNLLPNLGTPDDDEIDVENHDRINISNNLQKALTVKTNDELMVIYISNLVRSIIAFDDLIENKIQNKKIQEQRVKDKQSKVSDDSESESGDKEATAPLIQRKNKKN
B5: Rpn8 (recombinant lid) (natural protein)
chain: B4 chain

Key:
Rpn5 (recombinant lid) = target: T1, Rpn5 (recombinant lid); assay: negative-stain electron microscopy, 3D reconstruction
Rpn8 (recombinant lid) = target: B5; assay: as above
Rpt5 = target: T2, Rpt5; assay: cryo-EM structure
Rpn7 = target: T3, Rpn7; assay: cryo-EM structure
Rpn2 = target: T4, Rpn2; assay: cryo-EM structure
Rpt6 = target: B3; assay: cryo-EM structure
Rpt3 = target: T5, Rpt3; assay: cryo-EM structure
Rpn9 (recombinant lid) = target: T6, Rpn9 (recombinant lid); assay: negative-stain electron microscopy, 3D reconstruction

Binder: B1
binding result (Rpn5 (recombinant lid)): binds
binding result (Rpn8 (recombinant lid)): binds

Binder: B2
binding result (Rpt5): binds

Binder: B3
binding result (Rpn7): binds
binding result (Rpn2): binds

Binder: B4
binding result (Rpt6): binds
binding result (Rpt3): binds

Binder: B5
binding result (Rpn9 (recombinant lid)): binds
